Experimental findings from article PMC11133340 are described below.

In this assay the target is PSII-ACPII monomer (one PSII core monomer with six ACPII subunits and CCPII-S) (Chroomonas placoidea (endogenous in C. placoidea T11)). As to the kind of experiment: cryo-EM structure; single-particle cryo-EM of the native PSII-ACPII supercomplex co-purified from C. placoidea thylakoids; 25 mM Hepes-KOH pH 7.5, 1 mM CaCl2, 0.012% α-DDM; C2 symmetry, 2.47 Å overall; local refinement of the peripheral ACPIIs to 2.84 Å.

In general, stoichiometry N refers to a count of units in the complex or per binding partner. “PSII-ACPII monomer (one PSII core monomer with six ACPII subunits and CCPII-S) (from UniProt A0A222AI37 1-351; A0A222AIE3 1-509; A0A222AI36 1-461; A0A222AI74 1-84; A0A222AI51 1-42; A0A222AIE4 1-67; A0A222AI80 1-38; A0A222AI54 1-39; A0A222AIA0 1-45; A0A222AI58 1-38; A0A222AID2 1-32; A0A222AI61 1-39; A0A222AI96 1-62; A0A222AI35 1-163) (complex)” showed a stoichiometry N of 2.
